Results: the supplement of paper PMC10567573

B1: ATE1 (parent)
chain: DYFPSEDFYRCGYCKNESGSRSNG
B2: PPFIA4 (parent)
chain: YAGNLHESGVHGALLALDENFDHN

Variants of: B1
Assay: protein stability index of a GFP-peptide fusion (GPS, HEK-293T) (PSI 1-6); higher = more stable
Settings: c terminus: a fixed tail appended
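Further: lentivirally expressed fusions sorted by FACS into six bins by GFP to DsRed ratio, PSI derived from sequencing read proportions per bin multiplied by bin number.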

Protein stability index, by site and new letter:
G24: C 1.93 | M 1.89 | V 1.75 | R 2.5 | K 2.83 | L 2.15 | E 2.67 | D 2.26 | Y 2.13 | I 2.34 | F 1.92 | A 1.88 | W 1.78 | Q 1.93 | T 2.35 | H 2.04 | P 3 | N 2.09 | S 1.62
G19: V 2.14 | T 2.04 | Y 1.6 | N 1.84 | W 3.29 | M 1.38 | Q 2.9 | L 2 | R 1.76 | S 2.15 | P 2.57
S20: G 2.53 | H 2.1 | E 2.5 | Q 1.94 | F 1.72 | T 1.88 | P 2.36 | I 2.01 | V 2.25 | N 1.79 | L 1.33 | M 2.51 | Y 1.75 | K 2.36 | D 2.25 | R 2.07 | C 1.86 | A 2.83
S22: N 2.07 | A 1.85 | P 2.46 | C 2.17 | W 2.33 | F 1.58 | Y 2.42 | H 2.01 | M 3.37 | Q 2.6 | E 2.52 | L 1.57 | D 2.6 | G 2.04 | V 2.12 | K 2.02 | I 2.54 | T 1.82 | R 1.68
N23: Q 2.53 | F 1.26 | S 2.32 | E 2.29 | W 2.6 | P 1.91 | K 2.51 | L 2.65 | V 1.25 | C 1.28 | T 2.1 | D 2.1 | H 2.16 | I 1.52 | R 1.76 | M 1.52
R21: F 2.39 | D 3.09 | I 1.79 | K 2.61 | V 2.5 | Y 1.79 | Q 2.67 | W 2.03 | H 2.19 | P 2.69 | E 2.44 | L 1.58 | M 2.08 | C 2.83 | A 2.54 | S 2.22 | T 2.24 | G 2.79 | N 2.47

Variants of: B2
Assay: as above
Settings: c terminus: a fixed tail appended

Protein stability index, by site and new letter:
V10: C 2.06 | D 4.04 | E 4.11 | S 3.09 | M 1.79 | G 2.8 | L 2.35 | I 2.23 | T 3.09 | H 2.7 | N 3.23 | K 2.97 | A 3.11 | P 2.94 | W 2.73 | Q 3.19 | Y 2.31 | R 2.79 | F 2.25
A2: V 1.45 | I 2.12 | E 4.19 | R 4.27 | P 3.96 | C 2.38 | Y 3.07 | L 3.65 | W 3.26 | T 3.09 | Q 3.23 | M 3.23 | G 3.49 | F 3.84 | S 3.31 | N 4.32 | D 4.38 | K 4.68 | H 1.85
G9: E 3.49 | Y 2.34 | V 2.98 | D 3.69 | Q 2.82 | K 2.68 | F 1.83 | C 2.05 | M 3.23 | I 1.49 | T 2.9 | N 3.1 | A 2.46 | W 2.94 | S 2.63 | L 2.1 | H 2.65 | R 2.31 | P 3.59
G3: P 2.29 | N 2.98 | A 2.79 | R 2.72 | H 2.92 | Q 3.12 | I 2.81 | C 2.64 | K 3.42 | T 2.69 | M 3.55 | E 4.67 | V 3.11 | S 2.95 | W 2.56 | L 3.73 | D 3.83 | Y 1.99 | F 2.29
H6: R 1.92 | E 3.7 | N 2.05 | L 2.01 | I 2.23 | D 2.72 | T 2.83 | V 2.5 | Y 1.88 | S 2.27 | P 2.98 | C 2.92 | K 2.24 | F 1.99 | G 2.82 | M 2.09 | Q 2.19 | A 2.78
E7: S 2.58 | F 2.77 | A 1.9 | T 2.24 | G 2 | K 1.52 | C 1.67 | I 1.54 | L 2.34 | R 1.44 | Q 2.13 | H 1.77 | N 1.81 | Y 1.85 | D 3.14 | W 2.91 | P 1.95 | M 2.02 | V 1.93
H11: V 1.88 | M 1.87 | E 3.19 | P 2.57 | T 2.59 | I 1.66 | Q 3.59 | D 4.25 | N 2.83 | L 1.76 | G 3.35 | K 3.33 | R 2.46 | W 3.06 | S 2.9 | F 2.49 | C 1.22 | A 3.06 | Y 2.35
G12: K 2.97 | I 1.94 | S 3.28 | M 2.59 | F 2.32 | H 2.71 | R 2.74 | L 2.73 | P 2.11 | D 3.74 | E 3.78 | A 2.77 | T 3.22 | Q 3.56 | N 3.68 | V 1.95 | Y 1.7 | C 2.13 | W 3.02
Y1: L 4.49 | V 4.85 | W 3.77 | K 4.5 | N 4.81 | A 4.8 | G 5.06 | H 4.95 | Q 4.64 | M 4.81 | P 5.39 | I 3.86 | C 3.94 | F 2.04 | E 5.05 | S 5.03 | R 3.7 | D 4.8 | T 4.26
A13: E 4.13 | F 1.73 | D 4.32 | C 2.21 | G 2.65
N4: H 2.73 | D 3.55 | Y 2.2 | C 2.03 | L 2.33 | T 2.23 | E 3.82 | R 1.93 | I 2.53 | M 2.29 | F 1.75 | V 2.18 | G 2.65 | P 2.77 | K 2.09 | W 1.67 | A 2.48 | Q 3.69 | S 1.87
S8: D 3.16 | Q 2.71 | L 1.97 | V 2.48 | H 2.11 | E 3.28 | Y 2.28 | W 1.72 | K 2.67 | F 1.72 | R 2.02 | N 2.33 | I 2.21 | G 2.12 | M 2.19 | T 3.26 | P 2.49 | A 2.51 | C 2.39
L5: E 4.34 | W 3.46 | Y 1.82 | H 2.38 | F 2.02 | T 2.84 | P 2.94 | S 2.72 | C 2.58 | I 1.94 | G 2.21 | R 3.11 | V 2.12 | M 2.23 | N 2.96 | D 3.71 | A 2.56 | Q 2.94 | K 2.86
